The sequences below were run on Escherichia coli TOP10 (assay: shrunken log2 fold change of peptide-encoding DNA abundance (4.5 h post-induction vs induction); higher = less antimicrobial activity (less host growth inhibition)). Settings: time post-induction: 4.5 h; library: site-saturation at positions 5, 18, 19, 20.
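Also: peptides expressed intracellularly from a pBAD plasmid library in pooled LB shake-flask culture, induced with 0.3% L-arabinose, DNA abundance read by NGS, three biological replicates, DESeq2 with apeglm shrinkage.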

| Sequence | shrunken log2 fold change |
| --- | --- |
| RRIRLRPPRLPRPRPRPCDFPRP | 0.092 |
| RRIRFRPPRLPRPRPRPIKSPRP | -0.271 |
| RRIRFRPPRLPRPRPRPYSQPRP | -0.411 |
| RRIRMRPPRLPRPRPRPGDIPRP | 0.025 |
| RRIRTRPPRLPRPRPRPTIHPRP | -0.712 |
| RRIRHRPPRLPRPRPRPVWSPRP | -0.103 |
| RRIRLRPPRLPRPRPRPCHIPRP | -0.113 |
| RRIRYRPPRLPRPRPRPKLPPRP | 0.108 |
| RRIRIRPPRLPRPRPRPGWAPRP | 0.22 |
| RRIRYRPPRLPRPRPRPENAPRP | 0.0607 |
| RRIRFRPPRLPRPRPRPGPDPRP | 0.325 |
| RRIRQRPPRLPRPRPRPRIMPRP | -0.0396 |
| RRIRERPPRLPRPRPRPGVNPRP | 0.0154 |
| RRIRWRPPRLPRPRPRPWIDPRP | -0.049 |
| RRIRERPPRLPRPRPRPAYNPRP | -0.449 |
| RRIRQRPPRLPRPRPRPNDEPRP | 0.0763 |
| RRIRYRPPRLPRPRPRPLFNPRP | -1.24 |
| RRIRPRPPRLPRPRPRPGDFPRP | -0.0208 |
| RRIRLRPPRLPRPRPRPCGQPRP | -0.0417 |
| RRIRNRPPRLPRPRPRPEWQPRP | -0.0264 |
| RRIRNRPPRLPRPRPRPGHVPRP | -0.0552 |
| RRIRVRPPRLPRPRPRPNLAPRP | 0.0958 |
| RRIRLRPPRLPRPRPRPSWMPRP | -0.167 |
| RRIRPRPPRLPRPRPRPTMQPRP | 0.393 |
| RRIRRRPPRLPRPRPRPKDIPRP | -0.193 |

| Sequence | shrunken log2 fold change |
| --- | --- |
| RRIRQRPPRLPRPRPRPGNYPRP | -0.222 |
| RRIRERPPRLPRPRPRPMPWPRP | 0.0819 |
| RRIRTRPPRLPRPRPRPTFNPRP | -0.199 |
| RRIRWRPPRLPRPRPRPCGDPRP | 0.183 |
| RRIRMRPPRLPRPRPRPYEKPRP | -0.111 |
| RRIRGRPPRLPRPRPRPLMEPRP | 0.6 |
| RRIRCRPPRLPRPRPRPNEHPRP | -0.553 |
| RRIRMRPPRLPRPRPRPPIGPRP | 0.161 |
| RRIRKRPPRLPRPRPRPQRRPRP | 0.734 |
| RRIRSRPPRLPRPRPRPYHCPRP | -0.255 |
| RRIRKRPPRLPRPRPRPACYPRP | 0.13 |
| RRIRRRPPRLPRPRPRPNVAPRP | 0.304 |
| RRIRIRPPRLPRPRPRPYILPRP | -0.463 |
| RRIRWRPPRLPRPRPRPDPCPRP | -0.026 |
| RRIRFRPPRLPRPRPRPSNSPRP | -0.723 |
| RRIRWRPPRLPRPRPRPPGFPRP | 0.209 |
| RRIRCRPPRLPRPRPRPDAYPRP | -0.177 |
| RRIRNRPPRLPRPRPRPTTWPRP | -0.246 |
| RRIRPRPPRLPRPRPRPVCAPRP | 0.396 |
| RRIRDRPPRLPRPRPRPKMKPRP | -0.42 |
| RRIRTRPPRLPRPRPRPERYPRP | 0.0845 |
| RRIRQRPPRLPRPRPRPWFFPRP | -0.0396 |
| RRIRPRPPRLPRPRPRPRSGPRP | 0.0638 |
| RRIRIRPPRLPRPRPRPDYQPRP | -0.611 |
| RRIRYRPPRLPRPRPRPGYHPRP | -0.00992 |

| Sequence | shrunken log2 fold change |
| --- | --- |
| RRIRNRPPRLPRPRPRPYQLPRP | 0.327 |
| RRIRSRPPRLPRPRPRPIFRPRP | 0.0112 |
| RRIRVRPPRLPRPRPRPEQLPRP | 0.185 |
| RRIRTRPPRLPRPRPRPPQTPRP | 0.457 |
| RRIRERPPRLPRPRPRPMTCPRP | -0.00926 |
| RRIRYRPPRLPRPRPRPINTPRP | -0.274 |
| RRIRDRPPRLPRPRPRPIVQPRP | -0.267 |
| RRIRFRPPRLPRPRPRPNMLPRP | -0.669 |
| RRIRQRPPRLPRPRPRPRTDPRP | 0.00812 |
| RRIRGRPPRLPRPRPRPKEQPRP | 0.0833 |
| RRIRSRPPRLPRPRPRPIYFPRP | -0.397 |
| RRIRPRPPRLPRPRPRPTMPPRP | -0.144 |
| RRIRGRPPRLPRPRPRPPGHPRP | 0.772 |
| RRIRSRPPRLPRPRPRPNFSPRP | -0.112 |
| RRIRFRPPRLPRPRPRPVEVPRP | -1.6 |
| RRIRLRPPRLPRPRPRPCFIPRP | 0.554 |
| RRIRSRPPRLPRPRPRPDKQPRP | -0.0566 |
| RRIRGRPPRLPRPRPRPVASPRP | 0.623 |
| RRIRMRPPRLPRPRPRPCTNPRP | 0.0685 |
| RRIRCRPPRLPRPRPRPHDCPRP | -0.0825 |
| RRIRSRPPRLPRPRPRPLWNPRP | -0.25 |
| RRIRYRPPRLPRPRPRPCIAPRP | -0.148 |
| RRIRFRPPRLPRPRPRPEPVPRP | 0.326 |
| RRIRPRPPRLPRPRPRPHFGPRP | 0.0675 |
| RRIRDRPPRLPRPRPRPNQPPRP | 0.0323 |

| Sequence | shrunken log2 fold change |
| --- | --- |
| RRIRCRPPRLPRPRPRPAFIPRP | 0.0295 |
| RRIRPRPPRLPRPRPRPIQMPRP | -0.166 |
| RRIRYRPPRLPRPRPRPRWHPRP | -0.124 |
| RRIRVRPPRLPRPRPRPNNKPRP | -0.472 |
| RRIRTRPPRLPRPRPRPNVSPRP | -0.0389 |
| RRIRYRPPRLPRPRPRPIDYPRP | -0.0298 |
| RRIRQRPPRLPRPRPRPRIAPRP | 0.111 |
| RRIRMRPPRLPRPRPRPKECPRP | -0.0981 |
| RRIRRRPPRLPRPRPRPFTVPRP | -0.118 |
| RRIRVRPPRLPRPRPRPGGWPRP | 0.72 |
| RRIRMRPPRLPRPRPRPYVMPRP | -0.0161 |
| RRIRRRPPRLPRPRPRPAQAPRP | 0.233 |
| RRIRFRPPRLPRPRPRPQMIPRP | -0.484 |
| RRIRPRPPRLPRPRPRPYNCPRP | -1.4 |
| RRIRVRPPRLPRPRPRPHEFPRP | -0.0515 |
| RRIRPRPPRLPRPRPRPVAKPRP | 0.236 |
| RRIRNRPPRLPRPRPRPHSYPRP | 0.132 |
| RRIRWRPPRLPRPRPRPYFMPRP | -0.834 |
| RRIRGRPPRLPRPRPRPECVPRP | 1.72 |
| RRIRGRPPRLPRPRPRPKQRPRP | 0.471 |
| RRIRNRPPRLPRPRPRPIWPPRP | 0.152 |
| RRIRRRPPRLPRPRPRPNNKPRP | -0.24 |
| RRIRSRPPRLPRPRPRPLSYPRP | -0.464 |
| RRIRRRPPRLPRPRPRPKEFPRP | 0.0689 |
| RRIRVRPPRLPRPRPRPVDPPRP | 0.22 |

| Sequence | shrunken log2 fold change |
| --- | --- |
| RRIRPRPPRLPRPRPRPNVNPRP | -0.46 |
| RRIRFRPPRLPRPRPRPQKGPRP | 0.107 |
| RRIRPRPPRLPRPRPRPEMWPRP | 0.579 |
| RRIRLRPPRLPRPRPRPAYTPRP | -0.203 |
| RRIRDRPPRLPRPRPRPMEFPRP | -0.0018 |
| RRIRPRPPRLPRPRPRPQSQPRP | -0.00349 |
| RRIRWRPPRLPRPRPRPPFKPRP | 0.331 |
| RRIRQRPPRLPRPRPRPMNSPRP | -0.468 |
| RRIRHRPPRLPRPRPRPTVHPRP | -0.755 |
| RRIRWRPPRLPRPRPRPDYEPRP | -0.0912 |
| RRIRDRPPRLPRPRPRPWKEPRP | -0.0075 |
| RRIRTRPPRLPRPRPRPRGDPRP | 0.409 |
| RRIRLRPPRLPRPRPRPLDVPRP | -0.205 |
| RRIRLRPPRLPRPRPRPWIGPRP | -0.177 |
| RRIRGRPPRLPRPRPRPSSTPRP | 0.446 |
| RRIRDRPPRLPRPRPRPEVNPRP | 0.0354 |
| RRIRIRPPRLPRPRPRPNFIPRP | -0.327 |
| RRIRNRPPRLPRPRPRPPLCPRP | 0.167 |
| RRIRHRPPRLPRPRPRPTTEPRP | -0.0115 |
| RRIRQRPPRLPRPRPRPLNHPRP | 0.133 |
| RRIRVRPPRLPRPRPRPSCDPRP | -0.231 |
| RRIRCRPPRLPRPRPRPFNWPRP | -0.648 |
| RRIRIRPPRLPRPRPRPKSTPRP | -0.214 |
| RRIRYRPPRLPRPRPRPDELPRP | 0.0702 |
| RRIRTRPPRLPRPRPRPDPHPRP | -0.00783 |

| Sequence | shrunken log2 fold change |
| --- | --- |
| RRIRHRPPRLPRPRPRPWVHPRP | -0.179 |
| RRIRGRPPRLPRPRPRPCMTPRP | 2.89 |
| RRIRGRPPRLPRPRPRPQHHPRP | -0.102 |
| RRIRSRPPRLPRPRPRPRKEPRP | 0.131 |
| RRIRFRPPRLPRPRPRPQPRPRP | 0.541 |
| RRIRIRPPRLPRPRPRPIMAPRP | -0.286 |
| RRIRKRPPRLPRPRPRPQDQPRP | 0.325 |
| RRIRSRPPRLPRPRPRPMTDPRP | -0.222 |
| RRIRSRPPRLPRPRPRPRTRPRP | 0.512 |
| RRIRYRPPRLPRPRPRPHQCPRP | -0.0856 |
| RRIRKRPPRLPRPRPRPIFAPRP | 0.454 |
| RRIRHRPPRLPRPRPRPQSMPRP | -0.156 |
| RRIRMRPPRLPRPRPRPQYYPRP | -0.805 |
| RRIRQRPPRLPRPRPRPRIIPRP | 0.00299 |
| RRIRSRPPRLPRPRPRPDGCPRP | 0.0344 |
| RRIRGRPPRLPRPRPRPVNLPRP | -0.152 |
| RRIRLRPPRLPRPRPRPSTFPRP | -0.33 |
| RRIRCRPPRLPRPRPRPSSQPRP | -0.377 |
| RRIRYRPPRLPRPRPRPFQNPRP | -0.0769 |
| RRIRERPPRLPRPRPRPCFGPRP | -0.252 |
| RRIRARPPRLPRPRPRPKVLPRP | 0.269 |
| RRIRYRPPRLPRPRPRPVPRPRP | 0.204 |
| RRIRQRPPRLPRPRPRPQNFPRP | -0.0918 |
| RRIRGRPPRLPRPRPRPCQMPRP | 0.215 |
| RRIRCRPPRLPRPRPRPHWWPRP | 0.0398 |
